These results are taken from publication PMC10641755, “Structural basis of aggregate binding by the AAA+ disaggregase ClpG” (The Journal of Biological Chemistry, 2023).

For experiment [1], the target named is Firefly Luciferase, heat-aggregated (Firefly) [luciferase: P08659].
The target of experiment [2] is ClpG N1 core domain (N1∗), residues 1 to 46 (Pseudomonas aeruginosa, 15N (13C) isotope labelled for NMR). Briefly: NMR titration; unlabeled peptide 134 titrated to 15N-labeled N1∗ (80 μM N1∗, up to 240 μM peptide), 1H,15N-HSQC chemical shift perturbations, 298 K, 50 mM NaH2PO4 pH 6.5, 50 mM KCl, 2 mM DTT. As to conditions: both partners purified.

Chain of Firefly Luciferase, heat-aggregated (Firefly) [luciferase: P08659] (P08659 whole entry, the tested form may be a part): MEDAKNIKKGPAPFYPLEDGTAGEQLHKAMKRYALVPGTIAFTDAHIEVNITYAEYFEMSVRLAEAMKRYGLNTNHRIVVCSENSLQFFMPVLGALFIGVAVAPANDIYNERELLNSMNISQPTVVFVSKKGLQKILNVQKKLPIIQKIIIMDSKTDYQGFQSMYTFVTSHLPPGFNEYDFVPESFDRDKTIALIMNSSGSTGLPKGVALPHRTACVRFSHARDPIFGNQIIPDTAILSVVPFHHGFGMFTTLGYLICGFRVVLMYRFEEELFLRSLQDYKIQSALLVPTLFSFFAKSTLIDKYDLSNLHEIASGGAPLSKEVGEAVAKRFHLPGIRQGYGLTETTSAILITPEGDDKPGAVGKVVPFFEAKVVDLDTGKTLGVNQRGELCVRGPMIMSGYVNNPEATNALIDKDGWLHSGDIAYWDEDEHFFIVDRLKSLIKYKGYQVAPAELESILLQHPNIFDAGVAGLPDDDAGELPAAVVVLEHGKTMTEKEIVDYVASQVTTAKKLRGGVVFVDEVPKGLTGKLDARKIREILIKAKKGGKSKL

In the case of ClpG WT (P. aeruginosa ClpGGI) (enzyme), the stimulation of ClpG ATPase activity by aggregated Luciferase in experiment [1] came out at 1.4 fold.

On to CWFLRYLKASKVPLN (Unlabeled peptide) [Peptide 134], for which the Kd in experiment [2] was over 50 µM.
